Test results from patent publication US7939307B2, “Deletion mutant of multi-copper oxidase and its use in dyeing” (National University Corporation Kanazawa University, priority 2005, dated 2011).

Legend:
[1] = Oxidative polymerization activity for various substrates (Test Example 2); assay type: biochemical; conditions: pH 5.5
Description: For substrates other than catechin, lignin (derived from rice), and lignin (derived from conifer), each substrate was dissolved in DMSO, and then dissolved in an ion-exchange water, to give a 1 mM DMSO (1.0%) aqueous solution.
For catechin, lignin (derived from rice), and lignin (derived from conifer), each substrate was dissolved in DMSO, and then dissolved in an ion-exchange distilled water, to give a 2 mg/mL DMSO (1.0%) aqueous solution.
(§1) For the following method, an acetate buffer solution (pH 5.5) was used as the buffer solution.
0.88 mL of a 0.1 M buffer solution and 0.1 mL of the substrate solution were mixed in a cuvette (1.0 mL quartz cell, manufactured by SHIMADZU), 0.02 mL of an aqueous solution of mCueO (1) was added thereto, and mixed by inversion. The change in absorbance at each wavelength (measurement wavelength shown in Table 2) from 0 to 30 seconds was measured using a spectrophotometer (UV-2459, manufactured by SHIMADZU).
For comparison, the oxidative polymerization activity of wild-type CueO was measured in the same manner.

[2] = Oxidative polymerization activity for representative substrates of laccase (Test Example 1); assay type: biochemical; conditions: pH 5.5
Description: 2,6-dimethoxyphenol, p-phenylenediamine, 2,2′-azino-bis(3-ethylbenzothiazoline-6-sulfonate) (ABTS), 2-methoxyphenol, and catechol were dissolved in an ion-exchange distilled water, respectively, to each give a 50 mM aqueous solution.
4-hydroxyindole and p-aminophenol were dissolved in dimethylsulfoxide (DMSO), respectively, to each give a 50 mM DMSO solution.
o-aminophenol was dissolved in DMSO, and then dissolved in an ion-exchange distilled water, to give a 50 mM DMSO (10%)-aqueous solution.
1-nitroso-2-naphthol-3,6-disulfonic acid disodium (NNS) was dissolved in an ion-exchange distilled water to give a 5 mM aqueous solution.
Bilirubin was dissolved in DMSO to give a 0.5 mM DMSO solution.
Syringaldazine was dissolved in ethanol to give a 5 mM ethanol solution.
L-tyrosine was dissolved in a 0.1 M phosphate buffer solution (pH 6.5), to give a 1 mM solution.
as §1
For the substrates other than NNS and bilirubin, 0.88 mL of a 0.1 M buffer solution and 0.1 mL of the substrate solution were mixed in a cuvette (1.5 mL UV disposable cell, […], and mixed by inversion. The change in absorbance at each wavelength (measurement wavelength shown in Table 1) from 0 to 30 seconds was measured using a spectrophotometer (UV-2459, manufactured by SHIMADZU).
For NNS and bilirubin, 0.96 mL of a 0.1 M buffer solution and 0.02 mL of the substrate solution were mixed in a cuvette (1.5 mL UV disposable cell, manufactured by TOP), 0.02 mL of an aqueous solution of mCueO (1) was added thereto, and mixed by inversion. The change in absorbance at each wavelength (measurement wavelength shown in Table 1) from 0 to 30 seconds was measured using a spectrophotometer (UV-2459, manufactured by SHIMADZU).
For comparison, the oxidative polymerization activity of an enzyme prepared by adding a histidine tag to the C-terminus of wild-type mature CueO (SEQ ID NO: 8, hereinafter, simply referred to as ‘wild-type CueO’) was measured in the same manner. […] The change in absorbance in 30 seconds which is measured in the above manner was given in terms of change in absorbance in 1 minute (same applies below).

[3] = substrate o-Aminophenol, 420 nm
[4] = substrate p-Phenylenediamine, 470 nm

B1: Wild-type CueO: enzyme prepared by adding a histidine tag to the C-terminus of wild-type mature CueO derived from Escherichia coli (protein, listed as Escherichia coli)
chain: MQRRDFLKYSVALGVASALPLWSRAVFAAERPTLPIPDLLTTDARNRIQLTIGAGQSTFGGKTATTWGYNGNLLGPAVKLQRGKAVTVDIYNQLTEETTLHWHGLEVPGEVDGGPQGIIPPGGKRSVTLNVDQPAATCWFHPHQHGKTGRQVAMGLAGLVVIEDDEILKLMLPKQWGIDDVPVIVQDKKFSADGQIDYQLDVMTAAVGWFGDTLLTNGAIYPQHAAPRGWLRLRLLNGCNARSLNFATSDNRPLYVIASDGGLLPEPVKVSELPVLMGERFEVLVEVNDNKPFDLVTLPVSQMGMAIAPFDKPHPVMRIQPIAISASGALPDTLSSLPALPSLEGLTVRKLQLSMDPMLDMMGMQMLMEKYGDQAMAGMDHSQMMGHMGHGNMNHMNHGGKFDFHHANKINGQAFDMNKPMFAAAKGQYERWVISGVGDMMLHPFHIHGTQFRILSENGKPPAAHRAGWKDTVKVEGNVSEVLVKFNHDAPKEHAYMAHCHLLEHEDTGMMLGFTV
- Activity (U) ([1]; substrate 1,3-Dihydroxynaphthalene, 450 nm): 2.53 U
- Activity (U) ([1]; substrate 1,5-Dihydroxynaphthalene, 470 nm): 0.78 U
- Activity (U) ([1]; substrate 1-Naphthol, 405 nm): 0.00 U
- Activity (U) ([1]; substrate 2,4-Diaminophenol dihydrochloride, 470 nm): 69.83 U
- Activity (U) ([1]; substrate 2,5-Diaminotoluene sulfate, 470 nm): 44.55 U
- Activity (U) ([1]; substrate 2,6-Dihydroxynaphthalene, 405 nm): 0.00 U
- Activity (U) ([1]; substrate 2,6-Dimethoxy-4-metylphenol, 405 nm): 0.00 U
- Activity (U) ([1]; substrate 2,6-Dimethoxyphenol, 470 nm): 1.43 U
- Activity (U) ([1]; substrate 2-Chloro-1,4-phenylenediamine, 450 nm): 3.10 U
- Activity (U) ([1]; substrate 2-Methoxyphenol, 450 nm): 0.00 U
- Activity (U) ([1]; substrate 4-Hydroxyindole, 405 nm): 3.33 U
- Activity (U) ([1]; substrate 5-Aminoorthocresol, 405 nm): 0.00 U
- Activity (U) ([1]; substrate 5-Hydroxyindole, 405 nm): 0.00 U
- Activity (U) ([1]; substrate Catechin, 405 nm): 0.00 U
- Activity (U) ([1]; substrate Catechol, 405 nm): 0.00 U
- Activity (U) ([1]; substrate Gallic acid, 405 nm): 1.78 U
- Activity (U) ([1]; substrate Hydroquinone, 405 nm): 0.00 U
- Activity (U) ([1]; substrate Lignin (derived from conifer), 450 nm): 0.00 U
- Activity (U) ([1]; substrate Lignin (derived from rice), 450 nm): 0.00 U
- Activity (U) ([1]; substrate N,N-Dimethyl-p-phenylenediamine, 470 nm): 59.35 U
- Activity (U) ([1]; substrate Propyl gallate, 405 nm): 0.00 U
- Activity (U) ([1]; substrate Protocatechuic acid, 405 nm): 0.00 U
- Activity (U) ([1]; substrate Pyrogallol, 405 nm): 9.44 U
- Activity (U) ([1]; substrate Resorcinol, 405 nm): 0.00 U
- Activity (U) ([1]; substrate Tolylene-3,4-diamine, 470 nm): 0.00 U
- Activity (U) ([1]; substrate Trimethylhydroquinone, 405 nm): 0.00 U
- Activity (U) ([1]; substrate m-Aminophenol, 405 nm): 0.00 U
- Activity (U) ([1]; substrate m-Phenylenediamine, 405 nm): 0.00 U
- Activity (U) [1, 3]: 14.06 U
- Activity (U) ([1]; substrate o-Phenylenediamine, 430 nm): 0.00 U
- Activity (U) ([1]; substrate p-Aminodiphenylamine, 470 nm): 48.86 U
- Activity (U) ([1]; substrate p-Aminophenol, 405 nm): 3.37 U
- Activity (U) ([1]; substrate p-Methylaminophenol sulfate, 470 nm): 6.51 U
- Activity (U) [1, 4]: 19.55 U
- Activity (U) ([2]; substrate 2-Methoxyphenol, 470 nm): 0.00 U
- Activity (U) ([2]; substrate ABTS, 420 nm): 40.22 U
- Activity (U) ([2]; substrate Bilirubin, 530 nm): 0.53 U
- Activity (U) ([2]; substrate Catechol, 400 nm): 0.00 U
- Activity (U) ([2]; substrate L-Tyrosine, 490 nm): 0.00 U
- Activity (U) ([2]; substrate NNS, 490 nm): 0.00 U
- Activity (U) ([2]; substrate Syringaldazine, 530 nm): 4.73 U
- Activity (U) [2, 3]: 14.06 U
- Activity (U) ([2]; substrate p-Aminophenol, 400 nm): 3.37 U
- Activity (U) [2, 4]: 9.70 U
